Source: the supplement of paper PMC12338614
± gives the uncertainty stated by the source.

B1: library; numbered along this chain (parent)
chain: MEVVDPQQLGMFTEGELMSVGMDTFIHRIDSTEVIYQPRRKRAKLIGKYLMGDLLGEGSYGKVKEVLDSETLCRRAVKILKKKKLRRIPNGEANVKKEIQLLRRLRHKNVIQLVDVLYNEEKQKMYMVMEYCVCGMQEMLDSVPEKRFPVCQAHGYFCQLIDGLEYLHSQGIVHKDIKPGNLLLTTGGTLKISDLGVAEALHPFAADDTCRTSQGSPAFQPPEIANGLDTFSGFKVDIWSAGVTLYNITTGLYPFEGDNIYKLFENIGKGSYAIPGDCGPPLSDLLKGMLEYEPAKRFSIRQIRQHSWFRKKHPPAEAPVPIPPSPDTKDRWRSMTVVPYLEDLHGADEDEDLFDIEDDIIYTQDFTVPGQVPEEEASHNGQRRGLPKAVCMNGTEAAQLSTKSRAEGRAPNPARKACSASSKIRRLSACKQQ

Variants of: B1
Experiment: STK11 functional score (HeLa growth suppression), rescaled enrichment; synonymous median = 1, nonsense median = 0 (normalised score)
Details: with HeLa; variant type: missense
How it was run: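 Functional scores are post/pre-selection log ratios corrected to wild type, rescaled to synonymous and nonsense medians, merged over codons and replicate transfections, and given bootstrapped error. They come from POPCode libraries of codon-optimised STK11 integrated by Bxb1 at an AAVS1 landing pad in HeLa, three regions each transfected three times, with BFP-negative, mCherry-positive integrants sorted by FACS and tiled gDNA amplicons sequenced on NextSeq.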

STK11 functional score: each site, then its substitutions
Y261: L 0.609 ± 0.14, G 0.901 ± 0.2, H 0.771 ± 0.86, S 0.699 ± 0.16, T 1.04 ± 0.29, V 1.22 ± 0.4, W 0.609 ± 0.091, F 0.449 ± 0.14, C 0.999 ± 0.41, P 1.15 ± 0.38, A 1.25 ± 0.43, I 1.62 ± 0.16
N266: A 1.45 ± 0.15, D 1.13 ± 0.43, C 0.945 ± 0.51
D258: R 1.29 ± 0.39, Y 1.49 ± 0.2, M 0.663 ± 0.18, W 1.5 ± 0.51, A 1.33 ± 0.76, G 1.47 ± 0.15, C 1.16 ± 0.32, E 0.739 ± 0.3, F 0.78 ± 0.28, S 1.42 ± 0.44, L 0.539 ± 0.12, V 1.39 ± 0.37, H 1.62 ± 0.55
N259: G 0.492 ± 0.49, W 0.92 ± 0.36, M 1.35 ± 0.12, E 1.47 ± 0.34, R 1.13 ± 0.46, Y 1.1 ± 0.1, A -0.00474 ± 0.089, D 1.12 ± 0.63, T 1.32 ± 0.51, S 1.34 ± 0.38, V 0.437 ± 0.1, H 1.66 ± 0.14, L 1.26 ± 0.31, C 1.12 ± 0.42, F 1.25 ± 0.24
K262: W 1.05 ± 0.19, H 1.52 ± 0.42, S 0.994 ± 0.17, I 0.763 ± 0.14, L 1.13 ± 0.13, D 1.38 ± 0.2, A 1.23 ± 0.36, G 1.35 ± 0.21, T 1.08 ± 0.31, E 1.31 ± 0.85, N 1.33 ± 0.53, V 1.29 ± 0.3, M 1.17 ± 0.86, Y 1.29 ± 0.3, R 1.18 ± 0.47, F 0.714 ± 0.098, P 1.56 ± 0.25
F264: R 0.806 ± 0.25, I 0.658 ± 0.51, P 1.4 ± 0.39, E 1.57 ± 0.26, G 1.01 ± 0.21, A 1.16 ± 0.36, T 0.96 ± 0.56, S 0.597 ± 0.21, W 0.216 ± 0.074, L 1.1 ± 0.13, Y 1.06 ± 0.16, V 0.678 ± 0.21
P254: Y 0.0833 ± 0.12, G 0.298 ± 0.11, A -0.109 ± 0.13, C 0.821 ± 0.47, L 0.528 ± 0.12, R 0.199 ± 0.14, S 0.653 ± 0.17, W 0.882 ± 0.1, F 0.445 ± 0.29, H 1.41 ± 0.15, V 0.86 ± 0.31, T 0.929 ± 0.1
G257: S 1.39 ± 0.13, E 1.32 ± 0.47, I 1.66 ± 0.44, A 1.25 ± 0.6, Y 1.57 ± 0.13, R 0.694 ± 0.29, L 0.765 ± 0.18, V 1.23 ± 0.17
E256: F 0.982 ± 0.22, I 1.04 ± 0.77, G 1.17 ± 0.28, D 1.63 ± 0.4, R 1.48 ± 0.19, C 0.541 ± 0.33, L 1.52 ± 0.31, S 1.36 ± 0.4, V 0.873 ± 0.33, Y 1.4 ± 0.16, A 0.686 ± 0.64, W 1.65 ± 0.13, Q 1.47 ± 0.56
Y253: W 0.66 ± 0.1, S 0.394 ± 0.12, V 1.56 ± 0.22
E265: D 1.31 ± 0.49, M 1.25 ± 0.16, A 1.3 ± 0.53, R 1.41 ± 0.3, S 1.49 ± 0.32, V 1.41 ± 0.37, F 1.08 ± 0.34, T 1.56 ± 0.25, L 1.18 ± 0.42, C 1.67 ± 0.28, Q 0.752 ± 0.43, G 0.962 ± 0.17, I 1.42 ± 0.31, W 1.57 ± 0.21
F255: E 0.827 ± 0.37, G 0.519 ± 0.14, A 1.31 ± 0.29, L 0.5 ± 0.21, V 1.09 ± 0.13, C 0.921 ± 0.12, Q 0.98 ± 0.44, H 0.97 ± 0.25, P 0.517 ± 0.11, D 0.348 ± 0.1, R 0.632 ± 0.2, S 1.14 ± 0.19, T 0.94 ± 0.13, M 0.792 ± 0.1, I 1.36 ± 0.38, W 0.941 ± 0.1, N 0.322 ± 0.14, Y 1.25 ± 0.79
I260: A 0.468 ± 0.26, L 1.28 ± 0.27, T 1.33 ± 0.69, F 0.763 ± 0.1, N 1.67 ± 0.52, W 1.21 ± 0.38, G 1.1 ± 0.25, V 1.07 ± 0.18, D 1.16 ± 0.21, R 1.66 ± 0.16, S 1.44 ± 0.32, M 1.32 ± 0.26, E -0.179 ± 0.42
L263: F 0.857 ± 0.29, I 1.57 ± 0.28, S 1.18 ± 0.19, Q 0.281 ± 0.62, T 1.22 ± 0.17, W -0.0482 ± 0.1, V 0.76 ± 0.22, A 0.39 ± 0.12, R 1.39 ± 0.24, E 1.04 ± 0.17, D 0.549 ± 0.14, M 0.891 ± 0.17, C 1.11 ± 0.25, G 0.983 ± 0.18
